The term Kd denotes a measure of binding affinity in units of concentration.

The values below come from paper PMC7817190 (Proceedings of the National Academy of Sciences of the …, 2020).

For assay [1], the target named is His-tagged human recombinant corneodesmosin (His-CDSN) (human) (UniProt Q15517). The assay is described as follows: SPR. (In general: Surface plasmon resonance follows binding to a sensor surface in real time, without labels.)
In assay [2] the target is T1, His-tagged human recombinant corneodesmosin (His-CDSN) (human, UniProt Q15517 33-529).
T1 sequence (looked up): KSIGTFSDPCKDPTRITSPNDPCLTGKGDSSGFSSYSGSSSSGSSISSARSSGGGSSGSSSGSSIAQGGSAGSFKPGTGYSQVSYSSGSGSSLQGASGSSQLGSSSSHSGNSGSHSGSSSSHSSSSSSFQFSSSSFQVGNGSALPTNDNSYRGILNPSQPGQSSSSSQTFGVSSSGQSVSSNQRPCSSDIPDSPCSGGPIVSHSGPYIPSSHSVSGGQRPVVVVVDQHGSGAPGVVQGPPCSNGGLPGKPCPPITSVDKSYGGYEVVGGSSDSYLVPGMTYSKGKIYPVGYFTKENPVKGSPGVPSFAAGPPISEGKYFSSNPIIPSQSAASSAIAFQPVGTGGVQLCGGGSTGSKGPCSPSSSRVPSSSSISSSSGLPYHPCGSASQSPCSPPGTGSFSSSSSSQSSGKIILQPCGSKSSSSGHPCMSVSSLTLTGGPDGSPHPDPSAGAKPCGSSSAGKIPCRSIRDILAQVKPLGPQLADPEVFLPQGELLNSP
Put plainly: SPR.

As to “recombinant FnBPB N2N3 subdomains with the sequence of the AD08 protein (rFnBPBCC1N2N3) (domain or fragment)”, in assay [1], the Kd came to 49.1 µM.

B1: recombinant ClfB N2N3 subdomains with the sequence of the AD08 protein (rClfBCC1N2N3) (domain or fragment)
chain: AEPVVNAADAKGTNVNDKVTAKDFQLEKTTFDPNQSGNTFMAANFTVTGQVKSGDYFTAKLPDSVTGNGDVDYSNSNNTMPIADIVNDKNEVVAKATYDILTKTYTFVFTDYVNDKQNINGKFSLPLFTDRAKAPKSGTYDANINIADEMFNNKITYNYSSPIAGIDKPNGANISSQIIGVDTASGQNTYKQTVFVNPKQRVLGNTWVYIKGYQDKIEESSGKVSATDTKLRIFEVNDTSKLSDSYYADPNDSNLKEVTDQFKDKITYKYQNVASINFGDINKTYVVLVEGHYDKTGKNLKTQVIQENVDPATGKDYSIFGWNNENVVRYGGGSADGDSAVN
B1: the Kd in assay [2] was found to be 44.6 µM.
